Measured values as given in patent publication US11072647B2, “TGF-receptor II isoform, fusion peptide, methods of treatment and methods in vitro” (Onsejo Nacional DE Investigation Cientiticay Tecnica, priority 2013, dated 2021).

System: hASCs cells
Assay: Cytokine Array G5 of supernatants of lentivirally transduced hASCs
Type: cell-based, human
Design: key to IL-6* secreted by hASC / IGFBP-4 secreted by hASC / IL-7 secreted by hASC / LIF secreted by hASC / TNF-α secreted by hASC / FLT3-L secreted by hASC / SCF secreted by hASC / LIGHT secreted by hASC / IL-3 secreted by hASC / Oncostatin M secreted by hASC / FGF-7 secreted by hASC / FGF-9 secreted by hASC / Angiogenin secreted by hASC / BDNF secreted by hASC / NT-3 secreted by hASC / EGF secreted by hASC / NT-4 secreted by hASC / PIGF secreted by hASC / TIMP-1 secreted by hASC / GRO secreted by hASC / TIMP-2 secreted by hASC / CXCL1 (GROα) secreted by hASC / INF-γ secreted by hASC / CXCL6 (GCP-2) secreted by hASC / IL-2 secreted by hASC / CXCL9 (MIG) secreted by hASC / CXCL10 (IP-10) secreted by hASC / Osteopontin secreted by hASC / CXCL12 (SDF-1) secreted by hASC / Osteoprotegerin secreted by hASC / CXCL13 (BLC) secreted by hASC / CCL1 (I-309) secreted by hASC / Leptin secreted by hASC / CCL2 (MCP-1) secreted by hASC / CCL4 (MIP1b) secreted by hASC / GDNF secreted by hASC / CCL7 (MCP-3) secreted by hASC / IL-10 secreted by hASC / CCL8 (MCP-2) secreted by hASC / IL-13 secreted by hASC / CCL17 (TARC) secreted by hASC / IL-1α secreted by hASC / CCL18 (PARC) secreted by hASC / IL-1β secreted by hASC / CCL20 (MIP3a) secreted by hASC / CCL24 (Eotaxin-2) secreted by hASC / IL-12 p70 secreted by hASC / CCL26 (Eotaxin-3) secreted by hASC / IL-15 secreted by hASC / G-CSF secreted by hASC / IGF-1 secreted by hASC / M-CSF secreted by hASC / IGFBP-1 secreted by hASC / GM-CSF secreted by hASC / IGFBP-3 secreted by hASC / TNF-β secreted by hASC / Onc M secreted by hASC / VEGF secreted by hASC / CXCL5 (ENA-78) secreted by hASC / MIF secreted by hASC / CCL11 (Eotaxin) secreted by hASC / IL-5 secreted by hASC / TGF-β1 secreted by hASC: ↑: Increase or decrease of cytokines levels are referred to the levels secreted by cells transduced with the control vector Lt.eGFP; ↓: Increase or decrease of cytokines levels are referred to the levels secreted by cells transduced with the control vector Lt.eGFP; UC: unchanged levels with respect to cells transduced with the control vector Lt.eGFP; Abs: absent in mock transducer cells control; Abs: absent in mock transducer cells control
Experimental: Furthermore, the effect of TβRII-SE recombinant isoform was measured on a panel of 80 cytokines secreted by hASCs cells (FIG. 16). Cells were transduced with either control Lt-GFP, the TGF-β1 inhibitor Lt. TβRII-DN, or Lt-TβRII-SE and incubated in the presence or absence of exogenous TGF-β1. Collected supernatants were used to analyze the cytokines in a Cytokine Array G5 (Raybiotech, Inc. Norcross, USA).
Increase or decrease of cytokines levels are referred to the levels secreted by cells transduced with the control vector Lt.eGFP either in the presence (paracrine) or absence (autocrine) of exogenous TGF-β1. UC: unchanged levels with respect to cells transduced with the control vector Lt.eGFP. Abs: absent in mock transducer cells control. Dark grey boxes: decreased to undetected levels or absent in the supernatant of cells transduced with control vector Lt.eGFP.
A cytokine/chemokine array kit G5 (Ray Biotech Inc., Norcross, Ga.) was used to detect a panel of 80 secreted cytokines as recommended by the manufacturer. hASCs P7 untransduced or transduced with lentiviral vectors were grown for 72 h in a medium supplemented with 0.1% BSA. Supernatants were collected, filtered and frozen after collection. For densitometry analysis of the arrays, Typhoon 9410 Variable mode Imager (GE Healthcare Life Sciences) was used, and signal intensity values were measured using the Image analysis software ImageQuant TL 7.0 (GE Healthcare Life Sciences). Microarray data were analyzed with RayBio® Antibody Array Analysis Tool. Good data quality and adequate normalization were ensured using internal control normalization without background. Any ≥1.5-fold increase or ≤0.65-fold decrease in signal intensity for a single analyte between samples or groups may be considered a measurable and significant difference in expression, provided that both sets of signals are well above background (Mean background+3 standard deviations, accuracy≈99%).

[1] = Autocrine TGF-β1 (no exogenous TGF-β1), vs Lt.eGFP control
[2] = Paracrine TGF-β1 (3 pg/μl), vs Lt.eGFP control

B1: TβRII-SE: 80 amino acid soluble endogenous isoform of human TGF-β receptor II lacking the transmembrane domain, SEQ ID No. 2 (protein, listed as Homo sapiens)
chain: MGRGLLRGLWPLHIVLWTRIASTIPPHVQKSVNNDMIVTDNNGAVKFPQLCKFCDVRFSTCDNQKSCFSKVHYEGKKKAW
7.65 times: HGF secretion upregulation (absence of exogenous TGF-β1)
4.16 times: HGF secretion upregulation (presence of exogenous TGF-β1)
↓: CCL18 (PARC) secreted by hASC [1] | CCL24 (Eotaxin-2) secreted by hASC [1] | FGF-7 secreted by hASC [1] | FLT3-L secreted by hASC [1] | G-CSF secreted by hASC [1] | IGF-1 secreted by hASC [1] | IGFBP-3 secreted by hASC [1] | IL-1α secreted by hASC [1] | IL-7 secreted by hASC [1] | IL-13 secreted by hASC [1] | INF-γ secreted by hASC [1] | Leptin secreted by hASC [1] | Oncostatin M secreted by hASC [1] | PIGF secreted by hASC [1] | TNF-α secreted by hASC [1] | CXCL6 (GCP-2) secreted by hASC [2] | CXCL9 (MIG) secreted by hASC [2] | CXCL10 (IP-10) secreted by hASC [2] | CXCL13 (BLC) secreted by hASC [2] | EGF secreted by hASC [2] | G-CSF secreted by hASC [2] | GM-CSF secreted by hASC [2] | IGFBP-3 secreted by hASC [2] | IL-1α secreted by hASC [2] | IL-3 secreted by hASC [2] | IL-5 secreted by hASC [2] | IL-7 secreted by hASC [2] | IL-10 secreted by hASC [2] | IL-12 p70 secreted by hASC [2] | IL-13 secreted by hASC [2] | IL-15 secreted by hASC [2] | INF-γ secreted by hASC [2] | LIGHT secreted by hASC [2] | NT-3 secreted by hASC [2] | Osteopontin secreted by hASC [2] | PIGF secreted by hASC [2] | TNF-α secreted by hASC [2] | TNF-β secreted by hASC [2]
↑: CCL8 (MCP-2) secreted by hASC [1] | GM-CSF secreted by hASC [1] | IGFBP-4 secreted by hASC [2]
Abs: BDNF secreted by hASC [2] | FGF-7 secreted by hASC [2] | GDNF secreted by hASC [2] | IGF-1 secreted by hASC [2] | IGFBP-1 secreted by hASC [2] | IL-2 secreted by hASC [2] | NT-4 secreted by hASC [2]
dramatic drop: OPG secretion (ASC, high TGF-β1 concentration, vs Lt.eGFP-transduced control cells)
abs: CCL20 (MIP3a) secreted by hASC [1] | CCL26 (Eotaxin-3) secreted by hASC [1] | CXCL13 (BLC) secreted by hASC [1] | EGF secreted by hASC [1] | IGFBP-4 secreted by hASC [1] | IL-1β secreted by hASC [1] | IL-15 secreted by hASC [1] | LIGHT secreted by hASC [1] | Osteopontin secreted by hASC [1] | SCF secreted by hASC [1] | CCL1 (I-309) secreted by hASC [2] | CCL4 (MIP1b) secreted by hASC [2] | CCL24 (Eotaxin-2) secreted by hASC [2] | CCL26 (Eotaxin-3) secreted by hASC [2] | CXCL1 (GROα) secreted by hASC [2] | CXCL12 (SDF-1) secreted by hASC [2] | M-CSF secreted by hASC [2] | Onc M secreted by hASC [2]
UC: Angiogenin secreted by hASC [1] | BDNF secreted by hASC [1] | CCL1 (I-309) secreted by hASC [1] | CCL2 (MCP-1) secreted by hASC [1] | CCL4 (MIP1b) secreted by hASC [1] | CCL7 (MCP-3) secreted by hASC [1] | CCL17 (TARC) secreted by hASC [1] | CXCL1 (GROα) secreted by hASC [1] | CXCL6 (GCP-2) secreted by hASC [1] | CXCL9 (MIG) secreted by hASC [1] | CXCL10 (IP-10) secreted by hASC [1] | CXCL12 (SDF-1) secreted by hASC [1] | FGF-9 secreted by hASC [1] | GDNF secreted by hASC [1] | GRO secreted by hASC [1] | IGFBP-1 secreted by hASC [1] | IL-2 secreted by hASC [1] | IL-3 secreted by hASC [1] | IL-6* secreted by hASC [1] | IL-10 secreted by hASC [1] | IL-12 p70 secreted by hASC [1] | LIF secreted by hASC [1] | M-CSF secreted by hASC [1] | NT-3 secreted by hASC [1] | NT-4 secreted by hASC [1] | Osteoprotegerin secreted by hASC [1] | TIMP-1 secreted by hASC [1] | TIMP-2 secreted by hASC [1] | Angiogenin secreted by hASC [2] | CCL2 (MCP-1) secreted by hASC [2] | CCL8 (MCP-2) secreted by hASC [2] | CCL11 (Eotaxin) secreted by hASC [2] | CCL17 (TARC) secreted by hASC [2] | CCL20 (MIP3a) secreted by hASC [2] | CXCL5 (ENA-78) secreted by hASC [2] | FGF-9 secreted by hASC [2] | FLT3-L secreted by hASC [2] | GRO secreted by hASC [2] | IL-1β secreted by hASC [2] | IL-6* secreted by hASC [2] | LIF secreted by hASC [2] | MIF secreted by hASC [2] | SCF secreted by hASC [2] | TGF-β1 secreted by hASC [2] | TIMP-1 secreted by hASC [2] | VEGF secreted by hASC [2]
